{"source": "patent US7897573B2", "about": "“Selective VPAC2 receptor peptide agonists” (priority 2005, dated 2011)", "key": {"[1]": {"biological_target": "T1, Rat VPAC1 Receptor (Rattus norvegicus, UniProt P30083)", "T1 construct": "expressed in transfected cells; host or cells: CHO-PO (transient, Lipofectamine)", "T1 sequence (P30083 31-459)": "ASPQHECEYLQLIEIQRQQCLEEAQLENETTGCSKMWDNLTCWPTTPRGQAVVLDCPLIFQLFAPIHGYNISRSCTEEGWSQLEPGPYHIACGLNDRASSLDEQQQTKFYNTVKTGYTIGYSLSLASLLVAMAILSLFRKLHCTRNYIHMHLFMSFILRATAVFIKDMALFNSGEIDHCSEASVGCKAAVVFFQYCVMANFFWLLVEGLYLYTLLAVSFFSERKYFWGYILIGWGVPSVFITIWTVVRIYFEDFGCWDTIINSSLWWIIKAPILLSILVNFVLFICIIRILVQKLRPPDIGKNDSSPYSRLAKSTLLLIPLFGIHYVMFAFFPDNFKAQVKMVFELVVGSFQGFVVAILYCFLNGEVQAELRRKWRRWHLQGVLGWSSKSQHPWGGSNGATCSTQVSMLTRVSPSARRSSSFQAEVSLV", "assay": "DiscoveRx cAMP potency, CHO-PO cells transiently transfected with rat VPAC1 receptor", "format": "cell-based", "conditions": "cAMP generation", "description": "(§1) DiscoveRx: CHO-PO cells are transiently transfected with rat VPAC1 or VPAC2 receptor DNA using commercially available transfection reagents (Lipofectamine from Invitrogen). The cells are seeded at a density of 10,000/well in a 96-well plate and are allowed to grow for 3 days in […] culture medium At day 3, the assay is performed.\n(§2) On the day of the experiment, the medium is removed. Also, the cells are washed twice. The cells are incubated in assay buffer plus IBMX for 15 minutes at room temperature. Afterwards, the stimuli are added and are dissolved in assay buffer. The stimuli are present for 30 minutes. Then, the assay buffer is gently removed. The cell lysis reagent of the DiscoveRx cAMP kit is added. Thereafter, the standard protocol for developing the cAMP signal as described by the manufacturer is used (DiscoveRx Inc., USA). EC50 values for cAMP generation are calculated from the raw signal or are based on absolute cAMP levels as determined by a standard curve performed on each plate.\n(§3) Results for each agonist are the mean of two independent runs. Rat VPAC1 and VPAC2 results are only generated using the DiscoveRx assay."}, "[2]": {"biological_target": "T2, Human VPAC2 Receptor (Homo sapiens, UniProt P41587)", "T2 sequence (P41587 24-438)": "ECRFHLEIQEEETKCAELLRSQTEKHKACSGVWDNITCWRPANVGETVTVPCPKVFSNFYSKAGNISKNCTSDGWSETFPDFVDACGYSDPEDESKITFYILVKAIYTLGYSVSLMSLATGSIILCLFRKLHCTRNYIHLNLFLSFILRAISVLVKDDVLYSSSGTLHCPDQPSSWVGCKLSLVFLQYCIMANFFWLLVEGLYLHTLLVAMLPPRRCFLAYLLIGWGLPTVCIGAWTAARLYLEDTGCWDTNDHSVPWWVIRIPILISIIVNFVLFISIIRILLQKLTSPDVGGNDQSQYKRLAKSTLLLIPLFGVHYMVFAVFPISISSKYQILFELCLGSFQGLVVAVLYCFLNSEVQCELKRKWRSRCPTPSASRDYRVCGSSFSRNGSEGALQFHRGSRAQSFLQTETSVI", "assay": "Alpha screen cAMP potency at human VPAC2 receptor", "format": "cell-based", "conditions": "cAMP generation; read-out: Human VPAC2 Receptor: Alphascreen (EC50; nM)", "description": "Alpha screen: Cells are washed in the culture flask once with PBS. Then, the cells are rinsed with enzyme free dissociation buffer. The dissociated cells are removed. The cells are then spun down and washed in stimulation buffer. For each data point, 50,000 cells suspended in stimulation buffer are used. To this buffer, Alpha screen acceptor beads are added along with the stimuli. This mixture is incubated for 60 minutes. Lysis buffer and Alpha screen donor beads are added and are incubated for 60 to 120 minutes. The Alpha screen signal (indicative of intracellular cAMP levels) is read in a suitable instrument (e.g. AlphaQuest from Perkin-Elmer). Steps including Alpha screen donor and acceptor beads are performed in reduced light. The EC50 for cAMP generation is calculated from the raw signal or is based on absolute cAMP levels as determined by a standard curve performed on each plate.\nThe tested peptide concentrations are: 10000, 1000, 100, 10, 3, 1, 0.1, 0.01, 0.003, 0.001, 0.0001 and 0.00001 nM."}, "[3]": {"biological_target": "T3, Rat VPAC2 Receptor (Rattus norvegicus, UniProt P35000)", "T3 construct": "expressed in transfected cells; host or cells: CHO-PO (transient, Lipofectamine)", "T3 sequence (P35000 23-437)": "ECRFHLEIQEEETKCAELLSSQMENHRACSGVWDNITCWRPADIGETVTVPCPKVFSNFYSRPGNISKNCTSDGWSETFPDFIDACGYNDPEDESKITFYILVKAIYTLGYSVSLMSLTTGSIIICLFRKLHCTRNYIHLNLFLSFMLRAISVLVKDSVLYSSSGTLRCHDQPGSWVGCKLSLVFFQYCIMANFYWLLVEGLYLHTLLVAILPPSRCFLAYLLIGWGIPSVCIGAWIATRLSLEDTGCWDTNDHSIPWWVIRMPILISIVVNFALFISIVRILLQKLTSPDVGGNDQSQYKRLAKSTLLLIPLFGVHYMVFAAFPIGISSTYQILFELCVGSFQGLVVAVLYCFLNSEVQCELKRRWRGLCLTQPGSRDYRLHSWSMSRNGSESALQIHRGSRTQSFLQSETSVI", "assay": "DiscoveRx cAMP potency, CHO-PO cells transiently transfected with rat VPAC2 receptor", "format": "cell-based", "conditions": "cAMP generation", "description": "as §1, §2, §3"}, "[4]": {"biological_target": "T2, Human VPAC2 Receptor", "assay": "Filter binding assay, 125I-labeled VIP, membranes of stable VPAC2 cell line", "conditions": "125I-labeled VIP tracer", "description": "For this assay, the solutions and equipment include:\nPresoak solution: 0.5% Polyethyleneamine in Aqua dest\nBuffer for flushing filter plates: 25 mM HEPES pH 7.4\nBlocking buffer: 25 mM HEPES pH 7.4; 0.2% protease free BSA\nAssay buffer: 25 mM HEPES pH 7.4; 0.5% protease free BSA\nDilution and assay plate: PS-Microplate, U form\nFiltration Plate Multiscreen FB Opaque Plate; […] Type B Glasfiber filter\nIn order to prepare the filter plates, the presoak solution is aspirated by vacuum filtration. The plates are flushed twice with 200 μL flush buffer. 200 μL blocking buffer is added to the filter plate. The filter plate is then incubated with 200 μL presoak solution for 1 hour at room temperature.\nThe assay plate is filled with 25 μL assay buffer, 25 μL membranes (2.5 μg) suspended in assay buffer, 25 μL agonist in assay buffer, and 25 μL tracer (about 40000 cpm) in assay buffer. The filled plate is incubated for 1 hour with shaking.\nThe transfer from assay plate to filter plate is conducted. The blocking buffer is aspirated by vacuum filtration and washed two times with flush buffer. 90 μL is transferred from the assay plate to the filter plate. The 90 μL transferred from assay plate is aspirated and washed three times with 200 μL flush buffer. The plastic support is removed. It is dried for 1 hour at 60° C. 30 μL Microscint is added. The count is performed."}}, "data": [{"substance": "C6-HSDAVFTEQY(OMe)TOrnLRAibQLAAbuAibOrnY(OMe)LQSIOrnC(PEG20K)OrnGGPSSGAPPPC(PEG20K)-NH2 (HSDAVFTEQYTXLRXQLAXXXYLQSIXCXGGPSSGAPPPC; C6 acyl, non-natural residues, two PEG20K, C-terminal amide; Synthetic sequence PEGylated VPAC2 receptor agonist) [Agonist P588]", "values": [{"measurement": "EC50", "setting": "[1]", "value": 406, "unit": "nM"}, {"measurement": "EC50", "setting": "[2]", "value": 54, "unit": "nM"}, {"measurement": "EC50", "setting": "[3]", "value": 311, "unit": "nM"}]}, {"substance": "C6-HSDAVFTEQY(OMe)TOrnLRAibQVAAAibOrnYAibQSIOrnOrnGGPSSGAPPPC(PEG40K)-NH2 (HSDAVFTEQYTXLRXQVAAXXYXQSIXXGGPSSGAPPPC; C6 acyl, PEG40K on Cys, C-terminal amide; Synthetic sequence PEGylated VPAC2 receptor agonist) [Agonist P507]", "values": [{"measurement": "EC50", "setting": "[1]", "value": "> 1000", "unit": "nM"}, {"measurement": "EC50", "setting": "[2]", "value": 27.1, "unit": "nM"}, {"measurement": "EC50", "setting": "[3]", "value": 94.9, "unit": "nM"}]}, {"substance": "C6-HSDAVFTEQY(OMe)TOrnLRAibQLAAbuAibOrnY(OMe)LQSIOrnC(PEG40K)OrnGGPSSGAPPPS-NH2 (HSDAVFTEQYTXLRXQLAXXXYLQSIXCXGGPSSGAPPPS; C6 acyl, non-natural residues, PEG40K, C-terminal amide; Synthetic sequence PEGylated VPAC2 receptor agonist) [Agonist P584]", "values": [{"measurement": "EC50", "setting": "[1]", "value": 188, "unit": "nM"}, {"measurement": "EC50", "setting": "[2]", "value": 51.2, "unit": "nM"}, {"measurement": "EC50", "setting": "[3]", "value": 67.2, "unit": "nM"}]}, {"substance": "C6-HSDAVFTEQY(OMe)TOrnLRAibQC(PEG40K)AAbuAibOrnY(OMe)LQSIOrnOrnGGPSSGAPPPS-NH2 (HSDAVFTEQYTXLRXQCAXXXYLQSIXXGGPSSGAPPPS; C6 acyl, non-natural residues, PEG40K, C-terminal amide; Synthetic sequence PEGylated VPAC2 receptor agonist) [Agonist P586]", "values": [{"measurement": "EC50", "setting": "[1]", "value": 502, "unit": "nM"}, {"measurement": "EC50", "setting": "[2]", "value": 122, "unit": "nM"}, {"measurement": "EC50", "setting": "[3]", "value": 187, "unit": "nM"}]}, {"substance": "C6-HSDAVFTEQY(OMe)TOrnLRAibQK(WPEG40K)AAAibOrnYLQSIOrnOrnGGPSSGAPPPS-NH2 (HSDAVFTEQYTXLRXQXAAXXYLQSIXXGGPSSGAPPPS; C6 acyl, PEG40K on Lys, C-terminal amide; Synthetic sequence PEGylated VPAC2 receptor agonist) [Agonist P533]", "values": [{"measurement": "IC50", "setting": "[4]", "value": 959, "unit": "nM"}]}, {"substance": "C6-HSDAVFTEK(CO(CH2)2SPEG40K)Y(OMe)TOrnLRAibQVAAAibOrnYLQSIOrnOrnGGPSSGAPPPS-NH2 (HSDAVFTEXYTXLRXQVAAXXYLQSIXXGGPSSGAPPPS; C6 acyl; PEG40K; non-natural residues; amide; Synthetic sequence PEGylated VPAC2 receptor peptide agonist) [Agonist P451]", "values": [{"measurement": "IC50", "setting": "[4]", "value": 596, "unit": "nM"}, {"measurement": "EC50", "setting": "[2]", "value": 68.6, "unit": "nM"}]}, {"substance": "C6-HSDAVFTEQY(OMe)TOrnLRAibQC(PEG20K)AAAibOrnYLQSIOrnOrnGGPSSGAPPPC(PEG20K)-NH2 (HSDAVFTEQYTXLRXQCAAXXYLQSIXXGGPSSGAPPPC; C6 acyl, two PEG20K, C-terminal amide; Synthetic sequence PEGylated VPAC2 receptor agonist) [Agonist P568]", "values": [{"measurement": "EC50", "setting": "[1]", "value": "> 1000", "unit": "nM"}, {"measurement": "EC50", "setting": "[2]", "value": 129, "unit": "nM"}, {"measurement": "EC50", "setting": "[3]", "value": 250, "unit": "nM"}]}, {"substance": "C6-HSDAVFTEQY(OMe)TOrnLRAibQLAAbUAibOrnY(OMe)LQAibIOrnC(PEG40K)OrnGGPSSGAPPPS-NH2 (HSDAVFTEQYTXLRXQLAXXXYLQXIXCXGGPSSGAPPPS; C6 acyl, non-natural residues, PEG40K, C-terminal amide; Synthetic sequence PEGylated VPAC2 receptor agonist) [Agonist P576]", "values": [{"measurement": "EC50", "setting": "[1]", "value": 461, "unit": "nM"}, {"measurement": "EC50", "setting": "[2]", "value": 55, "unit": "nM"}, {"measurement": "EC50", "setting": "[3]", "value": 67.4, "unit": "nM"}]}, {"substance": "C6-HSDAVFTEQY(OMe)TOrnLRAibQC(PEG40K)AAbuAibOrnY(OMe)LQAibIOrnOrnGGPSSGAPPPS-NH2 (HSDAVFTEQYTXLRXQCAXXXYLQXIXXGGPSSGAPPPS; C6 acyl, non-natural residues, PEG40K, C-terminal amide; Synthetic sequence PEGylated VPAC2 receptor agonist) [Agonist P578]", "values": [{"measurement": "EC50", "setting": "[1]", "value": 269, "unit": "nM"}, {"measurement": "EC50", "setting": "[2]", "value": 205, "unit": "nM"}, {"measurement": "EC50", "setting": "[3]", "value": 306, "unit": "nM"}]}]}
